The results in this text go back to paper doi:10.1101/2024.09.16.613172.

For orientation: Kd means the concentration at which binding is half-saturated. A lower Kd goes with higher affinity.

Common to all, as to assay: ITC
For orientation: In ITC the heat of successive injections is recorded.

Assay [1] concerns the target SH3L-optiMHETase.
For assay [2], the target named is FAST-PETase-CelK (not stated | Clostridium thermocellum).
Assay [3] concerns the target MHETase-CelF (not stated | Clostridium cellulolyticum) (UniProt P37698).
The target in assay [4] is ICCG-ScaA (not stated | Ruminococcus flavefaciens).

On to CipA-CBM-SH3D (Scaf.3), for which the dissociation constant (Kd) in assay [1] came to 12.6 nM.

Turning to CipA-CBM-CipC (Scaf.2), the Kd in assay [2] was 19.1 nM; in assay [3] it was 1000 nM.

In the case of CipA-CBM-SH3D-ScaB (Scaf.4), the Kd came out at 3.53 nM in assay [1], 5.25 nM in assay [4] and 6.44 nM in assay [2].
